US20230227548A1 (published 2023)

How the values were obtained:
[1] = molecular target: T1, human GPRC5D (human, UniProt Q9NZD1 1-345); test: FACS, human GPRC5D cells
T1 construct: on transfected HEK293 or RBL cells, or endogenous on MM1R, H929, OPM2, LP-1, JIM3 and patient plasma cells; also called G-protein coupled receptor family C group 5 member D; hGPRC5D

[2] = molecular target: T1, human GPRC5D; test: cell-based or functional assay
[3] = molecular target: T2, cyno GPRC5D (cyno, UniProt Q9NZD1 1-343 (human entry)); test: cell-based or functional assay
T2 chain: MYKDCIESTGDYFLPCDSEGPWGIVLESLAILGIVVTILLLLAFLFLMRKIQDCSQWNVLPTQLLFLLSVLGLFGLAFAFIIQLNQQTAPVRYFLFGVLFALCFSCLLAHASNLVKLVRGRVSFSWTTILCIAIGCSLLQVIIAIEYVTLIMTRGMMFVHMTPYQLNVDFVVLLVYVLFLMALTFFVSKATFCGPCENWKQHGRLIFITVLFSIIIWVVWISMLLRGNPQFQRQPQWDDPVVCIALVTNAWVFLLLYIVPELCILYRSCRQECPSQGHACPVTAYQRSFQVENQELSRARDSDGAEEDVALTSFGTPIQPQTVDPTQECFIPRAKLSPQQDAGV

[4] = molecular target: T2, cyno GPRC5D; test: FACS, cyno GPRC5D cells, 1 ug/ml

T1 sequence (Q9NZD1 whole entry): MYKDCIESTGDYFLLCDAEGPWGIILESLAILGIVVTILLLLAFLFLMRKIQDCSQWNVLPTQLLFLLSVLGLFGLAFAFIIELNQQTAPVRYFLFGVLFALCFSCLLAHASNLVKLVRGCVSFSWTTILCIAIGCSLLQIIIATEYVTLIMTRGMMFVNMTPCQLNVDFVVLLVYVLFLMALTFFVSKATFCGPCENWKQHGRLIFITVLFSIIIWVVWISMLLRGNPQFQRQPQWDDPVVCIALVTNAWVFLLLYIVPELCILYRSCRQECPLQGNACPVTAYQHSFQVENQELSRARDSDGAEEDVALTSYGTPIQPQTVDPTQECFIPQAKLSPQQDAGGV

B1: GC5B540 (antibody, V domains shown)
VH: QVTLKESGPVLVKPTETLTLTCTVSGFSLTSYNVHWIRQPPGKALEWLAVIWAGGSTNYNSALMSRLTISKDTSKSQVVLTMTNMRAEDTATYYCARDGIRLRFAYWGQGTLVTVSS
VL: EIVMTQSPATLSVSPGERATLSCKASQNVATHVGWYQQKPGQAPRLLIYSASYRYSGIPARFSGSGSGTEFTLTISSLQSEDFAVYYCQQYNRYPYTFGQGTKLEIK
notes: HFA of GC5B396: GC5H240 + GC5L58; IgG4
Q: Does B1 bind [1]?
A: binds

B2: GCDB45 (bispecific antibody, V domains shown)
VH 1: EVQLVESGGGLVQPGGSLRLSCAASGFTFNTYAMNWVRQAPGKGLEWVARIRSKYNNYATYYAASVKGRFTISRDDSKNSLYLQMNSLKTEDTAVYYCARHGNFGNSYVSWFAYWGQGTLVTVSS
VL 1: QTVVTQEPSLTVSPGGTVTLTCRSSTGAVTTSNYANWVQQKPGQAPRGLIGGTNKRAPGTPARFSGSLLGGKAALTLSGVQPEDEAEYYCALWYSNLWVFGGGTKLTVL
VH 2: EVQLVQSGAEVKKPGESLKISCKGSGYSFTSYWIGWVRQMPGKGLEWMGIIYPGDSDTRYSPSFQGQVTISADKSISTAYLQWSSLKASDTAMYYCARIGFYGRSFRIFDYWGQGTLVTVSS
VL 2: EIVLTQSPATLSLSPGERATLSCRASQSVSSYLAWYQQKPGQAPRLLIYDASNRATGIPARFSGSGSGTDFTLTISSLEPEDFAVYYCQQRSNWPLTFGQGTKVEIK
Q: What does the source list for B2?
A: T-cell mediated cytotoxicity EC50, H929 (n = 5) [2]: 2.25 nM; T-cell mediated cytotoxicity EC50, MM1R (n = 3) [2]: 0.91 nM; T cell mediated target cell killing, Cyno GPRC5D EC50 [3]: 2.82 nM

B3: GC5B252 (antibody, V domains shown)
VH: QVQLVQSGAEVKKPGSSVKVSCKASGGTFSSYGISWVRQAPGQGLEWMGGIIPIFGNINYAQKFQGRVTITADESTSTAYMELSSLRSEDTAVYYCARVSRRFKRFAYYFDYWGQGTLVTVSS
VL: EIVLTQSPATLSLSPGERATLSCRASQSVSSYLAWYQQKPGQAPRLLIYDASNRATGIPARFSGSGSGTDFTLTISSLEPEDFAVYYCQQRSNWPLTFGQGTKVEIK
Q: B3 was tested. Which MFI [4] did it give?
A: 63300

B4: GC5B163 (antibody, V domains shown)
VH: EVQLVQSGAEVKKPGESLKISCKGSGYSFTSYWIGWVRQMPGKGLEWMGIIYPGDSDTRYSPSFQGQVTISADKSISTAYLQWSSLKASDTAMYYCARVYSFGGRHKALFDYWGQGTLVTVSS
VL: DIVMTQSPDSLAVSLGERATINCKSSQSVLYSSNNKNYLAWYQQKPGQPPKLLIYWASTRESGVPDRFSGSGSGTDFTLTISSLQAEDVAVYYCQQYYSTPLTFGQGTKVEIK
Q: B4 was tested. Which MFI [4] did it give?
A: 22000
